In patent publication US20110190270A1, “METHODS OF TREATING THROMBOEMBOLIC DISORDERS” (MONASH UNIVERSITY, priority 2008, published 2011):

Tested on: occlusive blood clot in the carotid artery
Test: carotid artery occlusion model, clot lysis and vascular reperfusion
Type: in vivo, mice
Details: regimens A-H of FIGS. 8 and 9, blood flow monitored 60 minutes
Protocol: Mice were anaesthetised and minor surgery performed to expose to the carotid artery and jugular vein. A Doppler flow probe was placed around the carotid artery to monitor blood flow through this blood vessel, and a catheter placed in the jugular vein to administer drugs. A blood clot was formed in the carotid artery of the mouse through the delivery of a small electric current (4 mA for 1.25 min^g), resulting in complete blockage of blood flow through the vessel (blood flow=0 mls/min), as measured by the flow probe. After vessel blockade was established, various combinations of t-PA, urokinase, heparin, hirudin, HA1077 and Y27632 were administered, using concentrations and regimens indicated (A-H in FIGS. 8 and 9) and examined for their efficacy to dissolve blood clots and restore blood flow. Blood flow was monitored in mice receiving each drug combination for a further 60 minutes, and blood flow measurements recorded using computer software.

B1: t-PA: thrombolytic agent (protein, UniProt P00750 36-562, looked up)
Tissue-type plasminogen …: SYQVICRDEKTQMIYQQHQSWLRPVLRSNRVEYCWCNSGRAQCHSVPVKSCSEPRCFNGGTCQQALYFSDFVCQCPEGFAGKCCEIDTRATCYEDQGISYRGTWSTAESGAECTNWNSSALAQKPYSGRRPDAIRLGLGNHNYCRNPDRDSKPWCYVFKAGKYSSEFCSTPACSEGNSDCYFGNGSAYRGTHSLTESGASCLPWNSMILIGKVYTAQNPSAQALGLGKHNYCRNPDGDAKPWCHVLKNRRLTWEYCDVPSCSTCGLRQYSQPQFRIKGGLFADIASHPWQAAIFAKHRRSPGERFLCGGILISSCWILSAAHCFQERFPPHHLTVILGRTYRVVPGEEEQKFEVEKYIVHKEFDDDTYDNDIALLQLKSDSSRCAQESSVVRTVCLPPADLQLPDWTECELSGYGKHEALSPFYSERLKEAHVRLYPSSRCTSQHLLNRTVTDNMLCAGDTRSGGPQANLHDACQGDSGGPLVCLNDGRMTLVGIISWGLGCGQKDVPGVYTKVTNYLDWIRDNMRP
Question: B1 was tested. Which “clot lysis and re-establishment of blood flow (in words)” value did it give?
Answer: The value was “relatively moderate in its ability to lyse occlusive blood clots”.
